Laboratory results published in the nanobody polyreactivity screen of Harvey et al. (2022).

Experiment: yeast display, Sf9 membrane polyspecificity reagent, FACS + sequencing; frameworks hold sequencing errors
Summary of the method: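 Using colony PCR, genes from sorted yeast display clones were amplified, then sequenced on MiSeq at 2 × 250 and filtered by CDR length. The clones had been stained with 10% biotinylated, detergent-solubilized Sf9 membrane reagent for 1 hour at 4 °C and sorted by FACS into low and high (top ~1%) gates on anti-HA and streptavidin fluorescence. Polyreactivity labels come from the gate of origin.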

Sequence	polyreactivity (PSR sort gate)
QVQLVESGGGLVQAGGSLRLSCAASGITLGYSAMGGYRQAPGKEREFVAGITTSGGTTYYADSVKGRFTISRDNAKNTVYLQMNSLKPEDTAVYYCAVYGGVKRGSFYYWGQGTQVTVSS	low polyreactivity
QVQLVESGGGLVQAGGSLRLSCAASGIIFDYYAMGLYRHAPGKEMELVASISWSGGGTYYADSVKGRFTISRDNAKNTVYLQMNSLKPEDTAVYYCNAGDHFVHWPHVKHKKFDYWGQGTQVTVSS	low polyreactivity
QVQPVESGGGLVQAGGSLRLSCAASGRTFWYYTMGWYRQAPGKERELVAAITSVGSTYYADSVKGRFTISRDNAKNTVYLQMNSLKPEDTAVYYCAKLYSYTHQSFDHWGQGTQVTVSS	high polyreactivity
QVQRVESGGGLVQAGGSLRLSCAASGSIFGPNAMGWYRQAPGKERELVAAITLSGGSTYYADSVKGRFTISRDNAKNTVYLQMNSLKPEDTAVYYCAAEYYQTTYVWWTYDYYWGQGTQVTVSS	low polyreactivity
QVQLVESGGGLVQAGGSLRLSCAASGLTFGTYAMGWYRQAPGKERELVAAIRSGGSTNYADSVKGRFTISRDTAKNTVYLQMNILKPEDNAVYYCAKRYYWDRYYYWGQGTPVTVSS	high polyreactivity
QVQIVESGGGLVQAGGSLRLSCAASGSILLYYPIGWYRQAPAKEREWVARITGSGSRTYYADSVKGRFTISRDNAKNTVFVQMHSVKPEDNAVYYCAADFSGHGWESVVGYGYWGQGTQVTVSS	low polyreactivity
QVQLVESGGGLVQAGGSLRLSCAASGRIFALYTMGWYIQAPGKERELVAAITTSGGSTYADSVKGRFTISRDNAKNTVYLQMNSLKPEDTAVYYCNAQGYEGLGEFDYWGQGTQLTVSS	low polyreactivity
QVQLVESGGGLVQAGGSLRLSCAASGSIFYDYAMGWYRQAPGKERELVATISSGGSTNYADSVKGRFTISRDNAKNTVYLQMNSLKPEDTAVYYCNVDGRRYPHEFDYWGQGTQVTVSS	low polyreactivity
QVQLVESGGGLVQAGGSLRLSCAASGSIFYPYAMGWYRPAPGKERELVAGITGGGRTYYADSVKGRFTISRDNAKNTVYLQMNSLKPEDTAVFYCAAVDFVSYYIPFHYEYYWGQGTQVTVSS	low polyreactivity
QVQLQESGGGLVQAGGSLRLSCAARASIFKVVDMGLYRQAPAKEREFVATIGEGGNTYYADSVKGRFTISRDNAKNTVYLQMNSLKPEDTAVYFYAVVLGTSYRYTYWGQGTQVTVSS	low polyreactivity
QVQLVESGGGLVQAGGSLRLSCAASGRIFTYYAMGWYRQAPGKVRELVAAISSGGSTYYADSVKGRFTISRDNAKTTVYLQMNSLTPEDTAVYYCAAEPSYYPYLSPTYGYWGQGTQVTVSS	low polyreactivity
QVQLVESGGGLVQAGGRLRLSCAASGRTFRRYTMGWDRQAPGKERELVAANTSGGRTNYADSVKGRFTISRDNAKNTVYLQMNSLKPEDTAVYYCNAQNEIWRVTFSPYDRWGYDYWGQGTQVTVSA	low polyreactivity
QDQLVESGGGLVQAGASLRLSCAASGSNGYYAMGWYRQAPGKERELVAVISRSGTGTYYADSVKGRFTISRDNAKNSVYLQMNSLKPEDTAVYYCNAETYTYRYEYDYWGQGTQVTVSS	high polyreactivity
QVQHVESGGGLVQAGGSLRLSSAASGITFPVYAMGWYRPTPGKERELVAAITFSGSNTYYADSVKGRFTISRDNAKNTVYLQMNSLKPEDTAVYYCNAETGGVYFNYYYVGEYYYWGQGTQVTVSS	low polyreactivity
QVQLVESGGGLVQAGGSLRLSCAASGGIIDWYVMGWYSQARGKERELVAAISYNGGSTYYADSVKGRFTISRDNAKNTGYLQMNSLKPEDTAVYYCAAAVTWPYRYVWYDYWGQGTQVTVSS	low polyreactivity
QVQLVESGGGLVQAGGSLRLSCAASGRTFSKYAMGWYRQAPGKERELVAAITRSGSSTYYADSVKGRFTISRDNAKNTVYLQMNCLKPEDTAVYYCAADRYLRSSGSAPDYGYWGQGTQVTVSS	low polyreactivity
QVQLVESGGGLDQAGGSLRLSCAASGRTFGWYAMGWYRQAPGTERELVAVISSSGGRTYYADSVKGRFTISRDNAKNTVYLQLNSLKPEDTAVYYCATPNGSKRYSYYYWGQGTQVTVSS	high polyreactivity
QVQLVESGGGLVQAGGSLRLSCAASGSTLYTYAMGWYRPAPGKERELVAAIRLSGGRTYYADSVKGRFTISRDNAKNTVYLQMNSLKPEDTAVYYCAVDWSYSRYDYWGQGTQVTVSS	high polyreactivity
QVQLVESGGGLVQAGGSLRLSCAASGRTFRSNAMGWYRQAPGKERELVAAIRNSDGSTNYADSVKGRFTISRDNAKNNVYLQMNSLKPEDTAVYYCAASSTVGGITRILYYYWGQGTQVTVSS	high polyreactivity
QVQLVESGGGLVQAGGSLRLSCAASGIIFTTYDMGWYRQAPGKERELVAAISSSTTNTYYADSVKGRFTISRDNAKNTVYLQMNSLKPEDTAVYYCAADGYSLDRYEYWGQGTQVTVSS	low polyreactivity
QVQLVESGGGLVQAGGSLRLSCAASGITIGRNTMGWSRQAPRKERELVAAIDSGGNTYADSVKGRFSISRDNAMNTVYLQMNSLKPEDTAVYYCAVDGGEFSSYGFWGQGTQVTVSS	low polyreactivity

Sequence	polyreactivity (PSR sort gate)
QVQLVESGGGLVQAGGSLRLSCAASGRIFIGNAMGWYRQAPGKERELVAAITWSGDDSTYYADSVKGRFTISRDNAKITVYLQMNSLKTEDTAVYYCAAYSYYYEYNYWGQGTQVTVSS	low polyreactivity
QDQLVESVGGLDQAGGSLRLSCAASGLIFQSYVMGWYRQAPGKERELVAAISSSVGSTHYADSVKGRFTISRDNAKNTVYLQMNSLKPEDTAVYYCAVEDYYADSGVEYDYWGQGTQVTVSS	low polyreactivity
QVQLVESGGRLVQAGGSLRLSCAASGSTFHSYVMGWYRQAPGKERELVAAITSRGGSTNYADSVKGRFTISRDNAKNTVYLKMNSLIPEDTAVYYCAADCYWGWSYFRYDYWGQVTQVTVSS	low polyreactivity
QVQLVESGGGLVQAGGSLRLSCAASASTLRRYAMGLYRQAPGQERELVAAISGTGSRTYYADSVKGRFTISRDTAKITVYLQMNSLKPEDSAVYYCNASPYRLTENDYWGQGTQVTVSS	high polyreactivity
QVQLVESGGGLVQAGGSLRISCAASDAMGWYRQAPGKERELVASISNGVSTNYADSVKGRFTISRDNAKNTVYLQMNSLKPEDTAVYYCAADAKTVGRDDLYWYEVEFDYWGQGTQVNVSS	low polyreactivity
QVQLVESGGGLVQAGGSLRLSCAASGSTFSRYAMGWYRQAPGKEREFVAAISRRAGGTYYADSVKGRFTISRDNAKNTVYLQMNSVKPEDTAVYYCAKVLPRDYIGRATYDYWGQGTQVTVSS	high polyreactivity
QVQLVESGGGLVQAGGSLRLSCAASGSIFRSYAMGWYRQAPGKERELVAAITYSGGGTYYADSVKGRFTISRDNAKTTVYLQMNSLKPEDTAVYYCNAVGGIYDFDYWGQGTQVTVSS	high polyreactivity
QVQLVESGGGLVQAGGSLRLSCAASGSTFTANAMGWYRQAPGKERELVAAISRSGGSTYYADSVKGRFTISRDNAKNTVYLQMNSLKPEDTAVYYCAADEYYQVSAYDYWGQGTQVTVSS	low polyreactivity
QVQLVESGGGLVQAGGSLRLSCAASGRIFSTYVMGWYRQAPGKERELVAAITWSGGSTYYADSVKGRFTISRDNEKNTVYLQMNSLKPEDTAVYYCAADEIYGYDYWGQGTQVTVSS	high polyreactivity
QVQLVESGGRLVQAGGSLRLSCAASGYTFPYANGWYRQAPGKERELVAGITSSGGSTYYADSVKGRFTISRDNAKNTVYLQMNSVKPEDTAVYYCNADVFVWLYPHYLIFDYWGQGTQVTVSS	low polyreactivity
QVQLVESGGGLVQAGGSLRLSCAASGSIFRAYAMGWYRQAPGKERELVATISGSGGSTDYADSVKGRFTISRDTAKNTVYLQMNSLKPEDTAVYYCARDDPASHKRYWHDYWGQGTQVTVSS	low polyreactivity
QVQLVESGGGLVQAGGSLRLSCAASGSIFSINTMGWYRQPPGKERELVAAITRSGSGTYYADSVKGRFTISRDNAKNTVYLQMNSLKPEDTAVYYCAKPAGARLGYWGQGTQVTVSS	low polyreactivity
QVQLVESGGGLVQAGGSLRLSCAASGSIFFYAMGWYRQAPGKERELVADITYTGGSKYADSVKGRFSISRDNAKNTVYLQMNSLKTEDTAVYYCAKLDGGLFDYWGQGTQVTVSS	low polyreactivity
QVQLVESGGGLVQAGGSLRLSCAASGRILVDYAMGWYRQAPGKERELVAAITSTGGTTYYADSVKGRFTISRDNAKNTVYLQMNSLKPEDTAVYYCAAKRQDSWGGTYGYWGQGTQVTVSS	low polyreactivity
QVQLVESGGGLVQAGGSLRLSCAASGRIIGRYAMGWYRQAPGKERELVAGITIRGGSTYYADSVKGRFTISRDNAKNTVYLQMNSLKPEDTAVYYCAARHGSGFRYYPGHAGGYWGQGTQVTVSS	low polyreactivity
QVQLVESVGGLVQAGGTLRLSCAATEGTIRSNAMGWYRQAPGKESELVAAISRGGSTYYADSVKGRFTISRDNAKNTVYLQMNSLKPEDTAVYYCNVAYYRSGHDNDYWGQGTQVTVSS	high polyreactivity
QVQLVESGGGLVQAGGSLRLSCAASGRIFAKNTMGWYRQAPGKERELVAAISRSGGRTYYADSVKGRFTISRDNAKNTVYLQMNSLKPEDTAVYYCSKDVKGSYAYDSWGQGTQVTVSS	high polyreactivity
QVQLVESGGGLVQAGGSLRLSCAASGSIFVGHAMGWYRQAPGKERELVATISRSGGSTYYADSVKGRFTISRDNAKNTVYLQMNSLKPEDTAVYYCAKTPYRRYSYGGYTYRTYDYWGQGTQVTVSS	low polyreactivity
QVQLVESGGGLVQAGGSLRLSCAASGSIYGYNAMGWYRQAPGKEREFVAAISWSGGRTYYADSVKGRFTISRDTAKNTVYLQMNSLNPEDTAVYYCAAPSRPAPRFDYWGQGTQVTVSS	low polyreactivity
QVQLVESGGGLVQAGGSLRLSCAASGFIFRYYAMGWYRQAPGKERELVAAINTGGTTYYADSVKGRFTISRDNAKNTVYLQMNSLKPEDTAVYYCATDGSPGYDWGQGTQVTVSS	high polyreactivity
